Measurements reported in the RNAGym collection of RNA variant scans (doi:10.1073/pnas.2313332121).

B1: TPR t1 (parent)
chain: GACCAAUCUGCCCUCAGAGCUCGAGAACAUCUUCGGAUGCAGAGGAGGCAGGCUUCGGUGGCGCGAUAGCGCCAACGUCCUCAACCUCCAAUGCAUCCCACCACAUGAUGAUGCCUGAAGAGCCUUGGUUUUUUG

Variants of: B1
Test: polymerase ribozyme fitness, log enrichment relative to wild type (log ratio); higher = more active; in vitro selection for triplet polymerase activity
In short: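 PCR was used to build mutant libraries for each subunit of a heterodimeric triplet polymerase ribozyme, which were then transcribed. A single in vitro selection round, in triplicate, used a frozen incubation at −7 °C and recovered extended constructs by gel excision, streptavidin beads and RT-PCR. Fitness is the logarithm of genotype enrichment relative to wild-type enrichment, averaged over replicates with inverse-variance weights. The logarithm is base 2, and after Illumina sequencing only genotypes with ≥10 input reads and ≥1 read per output were kept.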

Variant | polymerase ribozyme fitness (log ratio)
GACCAAUCUGCCCUCAGAACUCGAGAACAUCUUCGGAUGCAGAGGAGGCAGGCUUCGGUAGCGCGAUAGCGCCAACGUCCUCAACCACCAAUGCAUCCCACCACAUGAUGAUGGCUGAAGAGCCUUGGUUUUUUG [G19A G60A U87A C114G] | -3.18
GACCAAUCUGCCCUCAGAACUCGAGAACAUCUUCGGAUGCAGAGGAGGCAGGCUUCGGUGGCGCGAUAGCGCCAACGUCCUCAACCUCCAAUGCAUCCCAGCACAUGAUGAUGCCUGAAGAGCCUUGGUUUUUUG [G19A C101G] | -5.15
GACCAAUCUGCCCUCAGAACUCGAGAACAUCUUCGGAUGCAGAGGAGGCAGGCUUCGGUGGCGCGAUAGCGCCAACGUCCUCAACCUCAAAUGCAUCCCACCACAUGAUGAUGCCUGAAGAGCCUUGGUUUUUUG [G19A C89A] | -2.63
GACCAAUCUGCCCUCAGAACUCGAGAACAUCUUCGGAUGCAGAGGAGGCAGGCUUCGGUGGCGCGAUAGCGCCAACGUCCUCAACCUCCAAUGCAUCCCACCACAUGAUAAUGCCUGAAGAGCCUUGGUUUUUUG [G19A G110A] | -2.58
GACCAAUCUGCCCUCAGAACUCGAGAACAUCUUCGGAUGCAGAGGAGGCAGGCUUCGGUGGCGCGAUAGCGCCAACGUCCUCAACCUCCAAUGCAUCCCACCACAUGAUUAUGCCUGAAGAGCCUUGGUUUUUUG [G19A G110U] | -3.66
GACCAAUCUGCCCUCAGAACUCGAGAACAUCUUCGGAUGCAGAGGAGGCAGGCUUCGGUGACGCGAUAGCGCCAACGUCCUCAACCUCCAAUGCAUCCCACCACAUGAUGAUGCCUGAAGAGCCUUGGUUUUUUG [G19A G61A] | -2.53
GACCAAUCUGCCCUCAGAACUCGAGAACAUCUUCGGAUGCAGAGGAGGCAGGCUUCGGUGGCGCGAUACCGCCAACGUCCUCAACCUCCAAUGCAUCCCACCACAUGAUCAUGCCUGAAGAGCCUUGGUUUUUUG [G19A G69C G110C] | -6.61
GACCAAUCUGCCCUCAGAACUCGAGAACAUCUUCGGAUGCAGAGGAGGCAGGCUUCGGUAGCGCGAUAGCGCCAACGUCCUCAACCUCCAAUGCUUCCCACCACAUGAUGAUGCCUGAAGAGCCUUGGUUUUUUG [G19A G60A A95U] | -3.51
GACCAAUCUGCCCUCAGAACUCGAGAACAUCUUCGGAUGCAGACGAGGCAGGCUUCGGUGGCGCGAUAGCGCCAACGUCCUCAACCUCCAAUGCAACCCACCACAUGAUGAUGCCUGAACAGCCUUGGUUUUUUG [G19A G44C U96A G120C] | -3.85
GACCAAUCUGCCCUCAGAACUCGAGAACAUCUUCGGAUGCAGAGGAGGCAGGCUUCGGUGGCGCGAUAUCGCCAACGUCCUCAACCUCCAAUGCAUCCCACCACAUGAUGAUGCCUGAAGAGCCUUCGUUUUUUG [G19A G69U G127C] | -2.66
GACCAAUCUGCCCUCAGAACUCGAGAACAUCUUCGGAUGCAGAGGAGUCAGGCUUCGGUGGCACGAUAGCGCCAACGUCCUCAACCUCCAAUGCAGCCCAACACAUGAUGAUUCCUGAAGAGCCUUGGUUUUUUG [G19A G48U G63A U96G C101A G113U] | -5.6
GACCAAUCUGCCCUCAGAACUCGAGAACAUCUUCGGAUGCAGAGGAGGCAGGCUUCGGUGGCGCGAUAGCGCCAACGUCCUCAACCUCCAAUGCAUCCCACCACAUGAUGAUGCCUAAAGAGCCUUGGUUUUUUG [G19A G117A] | -4.95
GACCAAUCUGCCCUCAGACCUCGAGAACAUCUUCGGGUGCAGAGGAGGCAGGCUUCGGUGGCGCGAUAUCGCCAACGUCCUCAACCUCCAAUGCAUCCCACCACAUGAUGAUGCCUGAAGAGCGUUGGUUUUUUG [G19C A37G G69U C124G] | 0.721
GACCAAUCUGCCCUCAGACCUCGUGAACAUCUUCGGAUGCAGAGGAGUCAGUCUUCGGUGGCGGGAUAGCGCCAACGUCCUCAACCUCCAAUGCAUCCCACCACAUGAAUAUGCCUGAAGAGCCUUGGUUUUUUG [G19C A24U G48U G52U C64G U109A G110U] | -7.39
GACCAAUCUGCCCUCAGAACUCGAGAACAUCUUCGGAUGCAGAGGAGUUAGGCUUCGGUGGCGCGAUAUCGCCAACGCCCUCAACCUCCAAUUCAUCCCACCACAUGAUGAUGCCUGAAGAGCCUUGGUUUUUUG [G19A G48U C49U G69U U78C G93U] | -3.08
GACCAAUCUGCCCUCAGAACUCGAGAACAUCUUCGGAUGCAGAGGAGGCAGGCUUCGGUAGCGCGAUAGCGCCAACGUCCUCAACCUCCAAUGCAUCCCAACACAAGAUGAUGCCUGAUGAGUCUUGGUUUUUUG [G19A G60A C101A U106A A119U C123U] | -5
GACCAAUCUGCCCUCAGAACUCGAGAACAUCUUCGGAUGCAGAGGAGGCAGGCUUCGGUGGCGCGAUAGCGCCAACGUCCUCAACCUCCAAUGCAUCCCACCACAUGAUGAUGCCUGAAGAGUCUUGGUUUUUUG [G19A C123U] | -2.48
GACCAAUCUGCCCUCAGAACUCGAGAACAUCUUCGGAUGCAGAGGAGGCAGGCUUCGCUGGCGCGAUAGCGCCAACGUCCUCAACCUCCAAUGGAUCCCACCACAUGAUGAUGCCUGAACAGCCUUGGUUUUUUG [G19A G58C C94G G120C] | -3.72
GACCAAUCUGCCCUCAGAACUCGAGAACAUCUUCCGAUGCAGAGGAGGCAGGGUUCGGUGGCGCGAUAGCGCCAACGUCCUCAACCUCCAAUGCAUCCCACCACAUGAUGAUGGCUGAAGAGCCUUGGUUUUUUG [G19A G35C C53G C114G] | -6.59
GACCAAUCUGCCCUCAGAACUCGAGAACAUCUUCGGAUGCAGAGGAGGCAGGCUUCGGUGGCGCGAUAGCGCCAACGUCCUCAACCUCCAAUGCAUCCCACCACAUGAUGAGGCCUGAAGAGCCUUGGUUUUUUG [G19A U112G] | -3.87
GACCAAUCUGCCCUCAGAACUCGAGAACAUCUUCGGAUGCAGAGGAGGCAGGCCUCGGUGGCGCGAUAGCGCGAACGUCCUGAACCUCCAAUGCAUCCCACCACAUGAUGAUGGCUGAAGAGCCUUGGUUUUUUA [G19A U54C C73G C82G C114G G135A] | -3.8

Variant | polymerase ribozyme fitness (log ratio)
GACCAAUCUGCCCUCAGAACUCGAGAACAUCUUCGGAUGCAGAGGAAGCAGGCUUCGGUGGCGCGAUAGCGCCAACGUCCUCAACCUCCAAUGCAUCCCACCACAUGAUGAUGCCUGAAGAGCCUUGGUUUUUUG [G19A G47A] | -4.12
GACCAAUCUGCCCUCAGAACUCUAGAACAUCUUCGGAUGCAGAGGAGGCAGGCUUCGGUGGCGCGAUAGCGCCAACGUCCUCAACCUCCAAAGCAUCCCACCACAUGAUGAUGCCUGAAUAGCUUUGGUUUUUUG [G19A G23U U92A G120U C124U] | -6.05
GACCAAUCUGCCCUCAGAACUCGAGAACAUCUUCGGAUGCAUAGCAGGCUGGCUUCGGUGGCGCGAUAGCGCCAACGUCCUCAACCUCCAAUGCAUCCCACCACAUGAUGAUGCCUGAAGAGCCUUGGUUUUUUG [G19A G42U G45C A50U] | -4.81
GACCAAUCUGCCCUCAGAACUCGAGAACAUCUUCGGAUGCAGAGGAGGCACGCUUCGGUGGCGCGAUAGCGCCAACGUCCUCAACCUCCAAUGCAUCCCACCACAUGAUGAUGCCUGAAGAGCCUUGGUUUUUUG [G19A G51C] | -5.83
GACCAAUCUGCCCUCAGAACUCGAGAACAUCUUCGGAUGCAGAGGAGGCAAGCUUCGGUGGCGCGAUAGCGCCAACGUCCUCAACCUCCAAUGCAUCCCACCACAUGAUGAUGCCUGAAGAGCCUUGGUUUUUUG [G19A G51A] | -5.49
GACCAAUCUGCCCUCAGAACUCGAGAACAUCUUCGGAUGCAGAGGAGGCAGGCUUCGGUGGCGCGAUAGCGCCAACGUCCUCAACGUCCAAUGCAUCCCAUCACAUGAUGAUGCCUGAAGAGCCUUGGUUUUUUG [G19A C86G C101U] | -4.15
GACCAAUCUGCCCUCAGACCUCGAGAACUUCUUCGGAUGCAGAGGAGGCAGGCUUCGGUGGCGCGAUAGCGCCAACGUGCUCAACCUCCAAUGCAUCCCACCACAUGAUGACGCCUGAGGAGCCUUGGUUUUUUG [G19C A29U C79G U112C A119G] | -4.42
GACCAAUCUGCCCUCAGAACUCGAGAACAUCUUCGGAUGCAGAGGAGGCAGGCUUCGGUGGCGCGAUAGCGCCAACGUCCUCAAUCUCCAAUGCAUCCCACCACAUGAUGAUGGCUGAAGAGCCUUGGUUUUUUG [G19A C85U C114G] | -2.91
GACCAAUCUGCCCUCAGAACUCGAGAACAUCUUCGGAUGCAGAGGAGGCAGGCUUCGGUGGCGCGAUAGCGCCAACGUCCUCAACCUUCAAUGCAUCCCACCACAUGAUGAUGCCUGAAGAGCCUUGGUUUUUUG [G19A C88U] | -2.19
GACCAAUCUGCCCUCAGAACUCGAGAACAUCUUCGGAUGCAGAGGAGGCAGGCUUCGGUGGCGCGAUAGCGCCAACGUCCUCAACCGCCAAUGCAUCCCACCACAUGAGGAUGCCUGAAGAGCCUUGGUUUUUUG [G19A U87G U109G] | -4.8
GACCAAUCUGCCCUCAGAACUCGAGAACAUCUUCGGAUGCAGAGGAGGCAGACUUCGGUGGCGCGAUAGCGCCAACGUCCUCAACCUCCAAUGCAUCCCACCACAUGAUGAUACCUGAAGAGCCUUAGUUUUUUG [G19A G52A G113A G127A] | -2.38
GACCAAUCUGCCCUCAGAACUCGAGAACAUCUUCGGAUGCAAAGGAGGCAGGCUUCGGUGGCGCGAUAGCGCCAACGUCCUCAACCUCCAAUGCAUCCCACCACAUGAUGAUGCCUGAAGAGCCUUGGUUUUUUG [G19A G42A] | -3.26
GACCAAUCUGCCCUCAGAACUCGAGAACAUCUUCGGAUGCAGAGGAGGCAGGCUUCGGUGGCGCGAUAGCCCCAACGUCCUCAACCUCCAAUGCAUCCCACCACAUGAUGAUGCCUGAAGAGCCUUGGUUUUUUG [G19A G71C] | -3.41
GACCAAUCUGCCCUCAGAACUCGAGAACAUCUUCGGAUGCAGAGGAGGCAGGCUUCGGUGGCGCGAUAGCGCCAACGUCCUCAACCACCAAUGCAUCCCACCACAUGAUGAUGCCUGAAGAGCCUUGGUUUUUUG [G19A U87A] | -2.78
GACCAAUCUGCCCUCAGAACUCGAGAACAUCUUCGGAUGCAGAGGAGGCAGGCUUCGGUGCCGCGAUAGCGCUAACGUCCUCAACCUCAAAUGCAUCCCACCACAUGAUGAUGUCUGAAGAGCCUUGGUUGUUUG [G19A G61C C73U C89A C114U U131G] | -5.3
GACCAAUCUGCCCUCAGAACUCGAGAACAUCUUCGGAUGCAGAGGAGGCAGGCUUCGGUGGCGCGAUAGCGCCAACGUCCUCAACCUCCAAUGCAUCCCACCACAUGAUGAUGCCUGAAAAGCCUUGGUUUUUUG [G19A G120A] | -2.6
GACCAAUCUGCCCUCAGAACUCGAGAACAUCUUCGGAUGCAGAUGAGGCAGGCUUCGGUGGCGCGAUAGCGCCAACGUCCUCAACCUCCAAUGCAUCCCACCACAUGAUGAUGCCUGAAGAGCCUUGGUUUUUUG [G19A G44U] | -3.1
GACCAAUCUGCCCUCAGAACUCGAGAACAUCUUCGGAUGCAGAGGAGGCAGGCUUCGGUGGCCCGAUAGCGCCAACGUCCUCAACCUCCAAUGCAUCCCACCACAUGAUGAUGCCUGAAGAGCCUUGGUUUUUUG [G19A G63C] | -2.92
GACCAAUCUGCCCUCAGAACUCGAGAACAUCUUCGGAUGCAGAGGAGGCAGGCUUCGGUAGCGCGAUAGCGCCAACGUCCUCAACCUCCCAUGCAUCCCACCACAUGAUGAUGCCUGAAGAGCCUUGGUUUUUUG [G19A G60A A90C] | -2.74
GACCAAUCUGCCCUCAGAACUCGAGAACAUCUUCGGAUGCAGAGGAGGCAGGCUUCGGUGGCGCGAUAGCGCCAACGUCCUCAACCUCCAAUGCAUCCCACCACAUGAUGAUGCCGGAAGAGCCUUGGUUUUUUG [G19A U116G] | -6.24
GACCAAUCUGCCCUCAGAACUCGAGAACAUCUUCGGAUGCAGAGGAGGCAGGCUUCGGUGGCGCGAUAGCGCCAACGGCUUCAACCUCCAAUGCAUCCCACCACAUGAUGAUGCCUGAAGAGCCUUGGUUUUUUG [G19A U78G C80U] | -3.52
